This is an account of results in patent US20230192861A1 (ABL BIO, published 2023).

Test [1] addresses PD-L1 (Biacore, Example 1.6) (UniProt Q9NZQ7 19-238, limits assumed). Description: Biacore. (In general: Surface plasmon resonance follows binding to a sensor surface in real time, without labels.)
For test [2], the target named is T1, PD-L1 expressed on RKO cells (human, UniProt Q9NZQ7 19-290).
T1 construct: whole, on cells; RKO cells carry both PD-L1 and B7-H3; also called PD-L1 expressed on cell surface
The test can be described thus: FACS on RKO cells (express both B7-H3 and PD-L1), FITC anti-human IgG.

The target of test [3] is T1, PD-L1 expressed on RKO cells. Described as above. The source holds these as a separate data set.
For test [4], the target named is T2, human B7-H3 expressed on the surface of human cancer cell lines (human, UniProt Q5ZPR3 29-534).
T2 construct: whole, on cells; also called cell surface expression B7-H3
T2 sequence (looked up): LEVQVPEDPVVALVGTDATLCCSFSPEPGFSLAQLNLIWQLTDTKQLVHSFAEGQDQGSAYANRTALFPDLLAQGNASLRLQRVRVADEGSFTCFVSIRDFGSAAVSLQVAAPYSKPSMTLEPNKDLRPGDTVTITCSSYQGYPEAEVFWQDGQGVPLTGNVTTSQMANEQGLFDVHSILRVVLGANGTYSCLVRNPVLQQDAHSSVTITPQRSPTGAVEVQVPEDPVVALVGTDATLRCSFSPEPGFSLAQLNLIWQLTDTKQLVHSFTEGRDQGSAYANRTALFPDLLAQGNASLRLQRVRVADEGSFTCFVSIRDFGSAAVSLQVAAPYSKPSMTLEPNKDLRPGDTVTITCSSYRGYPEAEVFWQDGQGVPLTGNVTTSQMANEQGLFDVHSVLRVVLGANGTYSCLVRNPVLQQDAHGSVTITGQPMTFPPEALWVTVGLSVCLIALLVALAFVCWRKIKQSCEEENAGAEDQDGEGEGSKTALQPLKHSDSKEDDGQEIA
Description: FACS on RKO cells (express both B7-H3 and PD-L1), FITC anti-human IgG; the signal is not split between the two targets.

Test [5] deals with T1, PD-L1 expressed on RKO cells. The test is described as above.
The target in test [6] is T2, human B7-H3 expressed on the surface of …. Description: FACS on RKO cells. The procedure:
(§1) To evaluate the antigen binding property, 1+1 format bispecific antibodies were analyzed for its binding to mammalian expressed both B7-H3 and PD-L1 by FACS as compared to monospecific antibodies. Briefly, RKO cells (human colon carcinoma cell line) were incubated with antibodies. After wash by FACS buffer (1% BSA in PBS), the FITC-anti-human IgG antibody was added to each well and incubated at 4° C. for 1 hour. The MFI of FITC was evaluated by FACS Caliber. The results are described in FIG. 18.

In test [7] the target is T1, PD-L1 expressed on RKO cells. The test can be described thus: FACS on RKO cells. The procedure:
as §1

T1 sequence (Q9NZQ7 19-290): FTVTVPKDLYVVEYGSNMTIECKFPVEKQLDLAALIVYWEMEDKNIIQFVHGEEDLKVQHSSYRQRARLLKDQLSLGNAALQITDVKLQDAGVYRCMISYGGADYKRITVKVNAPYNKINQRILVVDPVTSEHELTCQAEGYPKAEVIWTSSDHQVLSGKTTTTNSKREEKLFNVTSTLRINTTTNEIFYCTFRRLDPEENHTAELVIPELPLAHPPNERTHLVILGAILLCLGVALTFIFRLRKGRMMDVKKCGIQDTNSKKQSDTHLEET
Sequence of PD-L1 (Biacore, Example 1.6) (Q9NZQ7 19-238 limits assumed): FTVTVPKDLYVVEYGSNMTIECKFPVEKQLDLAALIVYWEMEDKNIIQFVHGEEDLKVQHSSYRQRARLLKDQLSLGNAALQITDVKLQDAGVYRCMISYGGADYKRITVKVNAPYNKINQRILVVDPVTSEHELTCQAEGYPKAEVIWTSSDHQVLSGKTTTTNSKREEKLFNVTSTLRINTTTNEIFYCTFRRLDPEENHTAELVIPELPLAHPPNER

B1: H12 (antibody, V domains shown)
VH: EVQLVESGGGLVQPGGSLRLSCAASGFTFSSYDMSWVRQAPGKSLEWVATISDAGGYIYYSDSVKGRFTISRDNAKNSLYLQMNSLRDEDTAVYICAREFGKRYALDYWGQGTTVTVSS
VL: DIQMTQSPSSLSASVGDRVTITCKASQDVTPAVAWYQQKPGKAPKLLIYSTSSRYTGVPSRFSGSGSGTDFTFTISSLQPEDIATYYCQQHYTTPLTFGQGTKLEIK
notes: Humanized anti-PD-L1 antibody; also called WT (H12); WT
As to B1, in test [1], the Kd (commonly a measure of binding affinity in units of concentration) turned out to be 6.12 nM; the off-rate (koff) (commonly a measure of how fast the partners let go of each other) was determined as 0.000436 s⁻¹; the on-rate constant (kon) (as a rule, the rate constant with which the complex forms) amounted to 71200 M⁻¹ s⁻¹.

B2: B6 (anti-PD-L1) (antibody, V domains shown)
VH: EVQLVESGGGLVQPGGSLRLSCAASGFTFSSYDMSWVRQAPGKSLEWVATISDAGGYIYYRDSVKGRFTISRDNAKNSLYLQMNSLRDEDTAVYICARELPWRYALDYWGQGTTVTVSS
VL: DIQMTQSPSSLSASVGDRVTITCKASQDVTPAVAWYQQKPGKAPKLLIYSTSSRYTGVPSRFSGSGSGTDFTFTISSLQPEDIATYYCQQHYTTPLTFGQGTKLEIK
notes: Engineered anti-PD-L1 clone
Consider B2, for which, in test [1], the Kd stood at 4.25 nM, the dissociation rate constant (koff) is 0.000418 s⁻¹ and the kon is 98300 M⁻¹ s⁻¹. Moreover, in test [2], the EC50 (read off the curve) (usually the concentration needed to bring the measured effect to its halfway point) was roughly 1 nM. Besides, the “EC50 (read off the curve)” value in test [3] is roughly 0.2 nM.

B3: B6xC4I(2+2) (bispecific antibody, human IgG1, kappa, N297A)
chain 1: not shown
chain 2: DIQMTQSPSSLSASVGDRVTITCKASQDVTPAVAWYQQKPGKAPKLLIYSTSSRYTGVPSRFSGSGSGTDFTFTISSLQPEDIATYYCQQHYTTPLTFGQGTKLEIKRTVAAPSVFIFPPSDEQLKSGTASVVCLLNNFYPREAKVQWKVDNALQSGNSQESVTEQDSKDSTYSLSSTLTLSKADYEKHKVYACEVTHQGLSSPVTKSFNRGEC
notes: not the 1+1 format B6xC4I; also called ABLPNB.04; B6xC4I (2+2 format)
For the molecule B3, the “EC50 (read off the curve)” value in test [4] and in test [5] was roughly 1 nM each time.

B4: B6xB5(2+2) (bispecific antibody, human IgG1, kappa, N297A)
chain 1: not shown
chain 2: DIQMTQSPSSLSASVGDRVTITCKASQDVTPAVAWYQQKPGKAPKLLIYSTSSRYTGVPSRFSGSGSGTDFTFTISSLQPEDIATYYCQQHYTTPLTFGQGTKLEIKRTVAAPSVFIFPPSDEQLKSGTASVVCLLNNFYPREAKVQWKVDNALQSGNSQESVTEQDSKDSTYSLSSTLTLSKADYEKHKVYACEVTHQGLSSPVTKSFNRGEC
notes: also called ABLPNB.03; B6xB5 (2+2 format)
Regarding B4, the “EC50 (read off the curve)” value in test [4] and in test [5] was roughly 1 nM throughout.

B5: ABLPNB.09: bispecific antibody comprising the anti-PD-L1 B6 clone in (HC + LC) form and the anti-B7-H3 C4I clone in scFab-Fc form (bispecific antibody, human IgG1, kappa, lambda)
heavy: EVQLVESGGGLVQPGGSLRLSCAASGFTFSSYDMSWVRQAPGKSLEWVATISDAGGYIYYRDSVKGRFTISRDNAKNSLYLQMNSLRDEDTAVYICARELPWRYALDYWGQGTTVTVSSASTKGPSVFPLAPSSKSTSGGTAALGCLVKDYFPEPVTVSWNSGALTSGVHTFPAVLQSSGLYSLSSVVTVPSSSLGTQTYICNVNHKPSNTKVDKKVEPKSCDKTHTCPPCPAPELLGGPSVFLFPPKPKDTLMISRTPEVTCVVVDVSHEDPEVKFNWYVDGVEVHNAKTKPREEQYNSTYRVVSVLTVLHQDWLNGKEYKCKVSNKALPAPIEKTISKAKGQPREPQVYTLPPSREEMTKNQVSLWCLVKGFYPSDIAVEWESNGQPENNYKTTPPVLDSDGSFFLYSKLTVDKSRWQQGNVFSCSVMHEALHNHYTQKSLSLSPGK
light: DIQMTQSPSSLSASVGDRVTITCKASQDVTPAVAWYQQKPGKAPKLLIYSTSSRYTGVPSRFSGSGSGTDFTFTISSLQPEDIATYYCQQHYTTPLTFGQGTKLEIKRTVAAPSVFIFPPSDEQLKSGTASVVCLLNNFYPREAKVQWKVDNALQSGNSQESVTEQDSKDSTYSLSSTLTLSKADYEKHKVYACEVTHQGLSSPVTKSFNRGEC
chain: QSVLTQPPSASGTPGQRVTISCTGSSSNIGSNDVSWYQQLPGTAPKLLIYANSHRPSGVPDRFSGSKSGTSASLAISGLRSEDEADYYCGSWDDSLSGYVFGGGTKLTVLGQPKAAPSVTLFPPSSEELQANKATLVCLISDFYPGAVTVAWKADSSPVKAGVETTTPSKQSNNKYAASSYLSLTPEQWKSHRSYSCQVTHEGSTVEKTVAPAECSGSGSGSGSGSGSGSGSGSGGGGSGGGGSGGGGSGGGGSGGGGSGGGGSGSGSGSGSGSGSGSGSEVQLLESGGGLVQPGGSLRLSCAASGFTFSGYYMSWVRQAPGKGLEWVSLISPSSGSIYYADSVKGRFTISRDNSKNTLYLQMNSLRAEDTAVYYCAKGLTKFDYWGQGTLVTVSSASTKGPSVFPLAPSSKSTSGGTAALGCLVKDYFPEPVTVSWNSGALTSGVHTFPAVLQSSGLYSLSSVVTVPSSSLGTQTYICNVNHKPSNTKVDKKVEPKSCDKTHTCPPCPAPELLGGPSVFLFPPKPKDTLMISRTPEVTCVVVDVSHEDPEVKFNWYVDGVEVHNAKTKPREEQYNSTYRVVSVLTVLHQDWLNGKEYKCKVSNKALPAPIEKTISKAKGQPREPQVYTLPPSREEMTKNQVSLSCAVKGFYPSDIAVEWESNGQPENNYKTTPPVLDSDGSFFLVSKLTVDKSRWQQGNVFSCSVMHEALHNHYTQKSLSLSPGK
notes: Human IgG1, knobs-into-hole; also called B6xC4I (1+1 format)
In the case of B5, the binding result in test [6] and in test [7] was “binds” throughout.
